Experimental data: publication PMC7617694 (Molecular cell, 2025)
Where a chain is given by its changes, count along the chain named. Values belong to the molecule of their own block, whether it stands above or below them.

Experiments:
Experiment in all cases: cryo-EM structure
[1] = target: Recombinant human CXCL5 (human)
[2] = target: T1, Recombinant human CXCL1 (human, UniProt P09341 35-107)
T1 sequence: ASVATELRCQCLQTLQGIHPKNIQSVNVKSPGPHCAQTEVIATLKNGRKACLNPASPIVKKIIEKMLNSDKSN

[3] = target: T2, Recombinant human CXCL2 (human, UniProt P19875 35-107)
T2 sequence: T1 sequence with S2P, V3L, P20L, N27K, R48Q, I58M, N68K, S69N, D70G

[4] = target: T3, Recombinant human CXCL3 (human, UniProt P19876 35-107)
T3 sequence: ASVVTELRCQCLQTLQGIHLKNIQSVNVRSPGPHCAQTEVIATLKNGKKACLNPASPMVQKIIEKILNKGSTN

stoichiometry N [1]: 2
Molecule: Recombinant human CXCL5 (ligand)

binding result [2]: binds
binding result [3]: binds
binding result [4]: binds
B1: C-X-C chemokine receptor 2 (CXCR2), FLAG-tagged, purified from Sf9 cells (receptor)
chain: ANFTPVNGSSGNQSVRLVTSSSMEDFNMESDSFEDFWKGEDLSNYSYSSTLPPFLLDAAPCEPESLEINKYFVVIIYALVFLLSLLGNSLVMLVILYSRVGRSVTDVYLLNLALADLLFALTLPIWAASKVNGWIFGTFLCKVVSLLKEVNFYSGILLLACISVDRYLAIVHATRTLTQKRYLVKFICLSIWGLSLLLALPVLLFRRTVYSSNVSPACYEDMGNNTANWRMLLRILPQSFGFIVPLLIMLFCYGFTLRTLFKAHMGQKHRAMRVIFAVVLIFLLCWLPYNLVLLADTLMRTQVIQETCERRNHIDRALDATEILGILHSCLNPLIYAFIGQKFRHGLLKILAIHGLISKDSLPKDSRPSFVGSSSGHTSTTL
